# Laboratory results published in publication PMC11075132, “A transaminase-mediated aldol reaction and applications in cascades to styryl pyridines” (Catalysis Science & Technology, 2024).
# Substrate: NCCc1ccc(O)cc1
# Test: purified protein
# Format: biochemical, Chromobacterium violaceum
# Settings: apparent; transaminase reaction; 0.1 eq. PLP, 1 eq. pyruvate as amine acceptor; substrate 4a taken from context
protein,measurement,value
"CvTAm (Chromobacterium violaceum ATCC 12472) (protein, wild type, recombinant in E. coli, purified; homodimer; PLP enzyme; catalytic Lys288) MQKQRTTSQWRELDAAHHLHPFTDTASLNQAGARVMTRGEGVYLWDSEGNKIIDGMAGLWCVNVGYGRKDFAEAARRQMEELPFYNTFFKTTHPAVVELSSLLAEVTPAGFDRVFYTNSGSESVDTMIRMVRRYWDVQGKPEKKTLIGRWNGYHGSTIGGASLGGMKYMHEQGDLPIPGMAHIEQPWWYKHGKDMTPDEFGVVAARWLEEKILEIGADKVAAFVGEPIQGAGGVIVPPATYWPEIERICRKYDVLLVADEVICGFGRTGEWFGHQHFGFQPDLFTAAKGLSSGYLPIGAVFVGKRVAEGLIAGGDFNHGFTYSGHPVCAAVAHANVAALRDEGIVQRVKDDIGPYMQKRWRETFSRFEHVDDVRGVGMVQAFTLVKNKAKRELFPDFGEIGTLCRDIFFRNNLIMRACGDHIVSAPPLVMTRAEVDEMLAVAERCLEEFEQTLKARGLA",Km,1690 µM
same,kcat,6.04 s⁻¹
